Test results reported in PMC5564291 (Cell, 2016).

Experiments:
Experiment in all cases: ITC
[1] = target: PSD-95 PDZ3 (aa R306–E398) (human) (UniProt P78352)
[2] = target: PSD-95 PDZ3-C (aa R306-S412) (human) (UniProt P78352)
[3] = target: PSD-95 PSG WT (aa R306-L721) (human, UniProt P78352-3 306-721)

Molecule | Kd [1] [µM] | fold higher affinity than PDZ3 [2] [fold] | binding result [3]
N-terminal thioredoxin-tagged last 30 residues of SynGAP (SynGAP PBM) (domain or fragment) | 27 | 15 | –
SynGAP CC-PBM L-D&K-D mutant (L1202D and K1252D) (domain or fragment, mouse, UniProt J3QQ18 1147-1308, looked up) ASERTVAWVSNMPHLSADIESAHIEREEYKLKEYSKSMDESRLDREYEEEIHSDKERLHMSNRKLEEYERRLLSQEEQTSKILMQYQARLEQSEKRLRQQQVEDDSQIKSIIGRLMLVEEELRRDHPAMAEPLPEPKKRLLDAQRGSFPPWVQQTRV | – | – | binds
